Experimental findings from patent US5981483 are described below.

The term pKd denotes −log10 of the Kd, conventionally taken in molar units. Low values mean a high Kd, high ones a low Kd. The term koff denotes the rate constant with which the complex falls apart. Lower therefore signals slow dissociation. In general, kon refers to the second-order rate constant of association.

pKd: −log10 of the molar value.

The target in assay [1] is purified human TGF-β1 (human) (UniProt P01137).
For assay [2] the target is unchanged. The source holds these as a separate data set.
The target of assay [3] is BMP-4. Nature of the assay: SPR (BIAcore); analyte over immobilized cytokine. On the technique in general: SPR reads the build-up and loss of mass on a sensor chip optically.
The target of assay [4] is TGF-β2. Nature of the assay: SPR (BIAcore); analyte over immobilized cytokine.

On to “bovine thyroglobulin (from UniProt P01267)”, for which, in assay [1], the percent neutralization of the antiproliferative activity of TGF-β1 (3H-thymidine incorporation, Mv1Lu cells) amounted to 150%. In assay [2], this substance had an IC50, neutralization of TGF-β1 activity in the Mv1Lu growth inhibition assay of 220 nM. Further, in assay [3], the pKd was 7.70, the koff worked out at 0.0011 s⁻¹ and the kon turned out to be 54000 M⁻¹ s⁻¹. In assay [4], this substance showed a pKd of 5.42, a koff of 0.005 s⁻¹ and a kon of 1300 M⁻¹ s⁻¹.
